Target: ESYT2_Frag (human) (UniProt A0FGR8)
Test: CDI HuProt native protein microarray (High-Spec cross-reactivity assay)

F635: 1860 | S-Score: 2.15 | Z-Score: 5.71
B1: CD1-M8 (antibody, V domains shown)
VH: EVQLQQSGPELVKPGASVKMSCKASGYTFTDYYIHWVKQSHGKGLEWIGYIFPNNGGNGYSQKFKGKATMTVDKSSSTAYMELRSLTSEDSAVYYCARGGYDAGFVYWGQGTLVTVSA
VL: DIVMSQSPSSLAVSAGEKVTMSCKSSQSLFNSGARKNFLAWYQQKPGQSPKLLIYWASTRESGVPDRFTGSGSGTDFTLTISSVQAEDLAVYYCKQSYYLITFGAGTKLELK

From US20240174741A1
